Tests used:
proMMP-2 (Homo sapiens) = proMMP-2 (Homo sapiens) (UniProt P08253); settings: cited from earlier work
proMMP-2 = biological target: T1, proMMP-2 (Homo sapiens, UniProt P08253); assay: tryptophan fluorescence quenching
T1 chain: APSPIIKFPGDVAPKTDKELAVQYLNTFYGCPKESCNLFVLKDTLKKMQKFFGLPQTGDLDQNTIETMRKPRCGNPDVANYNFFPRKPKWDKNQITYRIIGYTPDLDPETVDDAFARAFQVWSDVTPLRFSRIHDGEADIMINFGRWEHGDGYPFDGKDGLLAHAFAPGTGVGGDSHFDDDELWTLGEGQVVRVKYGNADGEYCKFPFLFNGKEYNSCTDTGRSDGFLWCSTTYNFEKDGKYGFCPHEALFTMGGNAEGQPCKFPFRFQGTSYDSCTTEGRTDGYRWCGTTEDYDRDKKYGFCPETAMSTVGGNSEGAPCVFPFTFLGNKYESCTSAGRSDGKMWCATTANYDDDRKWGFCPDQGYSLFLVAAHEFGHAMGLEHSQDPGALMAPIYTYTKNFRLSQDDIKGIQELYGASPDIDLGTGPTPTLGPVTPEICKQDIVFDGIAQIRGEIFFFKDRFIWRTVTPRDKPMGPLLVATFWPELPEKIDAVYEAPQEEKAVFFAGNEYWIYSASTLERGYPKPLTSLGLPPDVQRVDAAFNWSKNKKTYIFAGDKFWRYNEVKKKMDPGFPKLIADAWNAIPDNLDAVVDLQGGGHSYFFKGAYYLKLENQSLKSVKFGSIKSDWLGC

Molecule	Kd (proMMP-2 (Homo sapiens)) [nM]	Kd (proMMP-2) [nM]
bone sialoprotein (from UniProt P21815)	2.9	
bone sialoprotein (protein) FSMKNLHRRVKIEDSEENGVFKYRPRYYLYKHAYFYPHLKRFPVQGSSDSSEENGDDSSEEEEEEEETSNEGENNEESNEDEDSEAENTTLSATTLGYGEDATPGTGYTGLAAIQLPKKAGDITNKATKEKESDEEEEEEEEGNENEESEAEVDENEQGINGTSTNSTEAENGNGSSGGDNGEEGEEESVTGANAEDTTETGRQGKGTSKTTTSPNGGFEPTTPPQVYRTTSPPFGKTTTVEYEGEYEYTGANEYDNGYEIYESENGEPRGDNYRAYEDEYSYFKGQGYDGYDGQNYYHHQ		270
